Km and kcat data for 2 proteins are collected here from paper PMC5032992.

Substrate in data set [1]: O=[N+]([O-])c1ccc(O[C@@H]2O[C@@H](CO)[C@H](O)[C@H]2O)cc1
Description: purified protein. The note with it: pH 5.0, 40 °C, 10 min, 0.1-2.0 mM substrate, 40.0 °C.

Substrate in data set [2]: O=[N+]([O-])c1ccc(O[C@@H]2O[C@H](CO)[C@@H](O)[C@H](O)[C@H]2O)cc1
Description: purified protein. As to conditions: citrate phosphate buffer pH 5, 0.1-6 mM substrate.

Changes are numbered by the printed parent chain. Names and notes keep the numbering of the source.

B1: rPoAbf (recombinant α‐L‐arabinofuranosidase from Pleurotus ostreatus) (Pleurotus sp. 'Florida') (protein)
chain: QTVSVSATASHPIPTTLWGQMFEDISHSGDGGLYAELLQNRALQQVTPNTAASLNAWSAINGGQISVVADSVPVSNSLPNSLRFTVPAGRTGQVGFANSGFFGMKIVASSTYKGSFFVKFPTASSFTGNLIVGLRTTSGSTIVSQTVPIRGASTSWQQISVSLTPRTTPPSTDNQFFVTIDGAAASGQTINFAMFSLFPPTFKNRANGMRDDIATALAEMKPKFFRFPGGNNLEGQTVPTRWQWNATIGSLLDRPGRAGDWGYINTDGLGLLEYLLFCEDLGMEPIMAVWAGFALGGTSVAQNGLQPYIQQAIDQINFVIGDPATSAPAARRAALGRAQPFKLTYVEIGNEDFFASDTYTYRWPAFVNALRGAFPNLKFIATSNINSPVLSPNPAQWDHHVYQTPTWFAQNSFFYDDMPRNGVTFFEGEYAAISTNPNDIFGSPANGRLTFSTMQSASGEAAYMIGMERNSDIVFAASYAPLLGHVAGSQWTPNLIAFDTGNVYRSASYFVQKLFSTNMGNEYIPSTLPSRTGTAFWGVTRNTATGEIIIKVSNTVAAQANLTFVLPFANVATSGSLQVLTGAATASNSPTTPSALAPATRTITTGKTFTFAAAGFSVNVITIKAS
Usually Km stands for the substrate concentration at which the rate is half of its maximum. For orientation: kcat means the number of substrate molecules converted per active site and unit of time at saturation. For B1, in “purified protein [1]”, the Km was 640 ± 110 µM and the kcat was 3,010 ± 145 Min^−1. Moreover, in the data set “purified protein [2]”, the Km was 4070 ± 150 µM and the kcat was 0.183 ± 0.01 s⁻¹.

B2: rPoAbf (recombinant α‐L‐arabinofuranosidase from Pleurotus ostreatus) (Pleurotus sp. 'Florida'; S160G) (protein)
chain: B1 chain with S140G
With B2, in the data set “purified protein [1]”, the Km was 890 ± 190 µM and the kcat was 2,590 ± 165 Min^−1. In “purified protein [2]”, the Km came out at 5030 ± 120 µM and the kcat came to 0.383 ± 0.015 s⁻¹.
